Values quoted from earlier work, collected in patent publication US20060166927A1, “Compounds that bind to the interferon-gamma, preparation method thereof and medicaments containing same” (priority 2002, published 2006).

B1: γ-IFN: polypeptide comprising, for example, 143 amino acids in humans, which is part of the cytokine family (protein, UniProt P01579 24-161, looked up)
Interferon gamma: QDPYVKEAENLKKYFNAGHSDVADNGTLFLGILKNWKEESDRKIMQSQIVSFYFKLFKNFKDDQSIQKSVETIKEDMNVKFFNSNKKKRDDFEKLTNYSVTDLNVQRKAIHELIQVMAELSPAAKTGKRKRSQMLFRG
At the surface of the vascular endothelium
  proportion of injected γ-IFN rapidly bound by molecules of heparin/heparan sulphate type: approximately 90%
Intravenous injection, during the first 5 to 10 minutes
  cytokine disappearing from the circulating blood: 90%
Intravenous injection, first phase of biexponential elimination
  half-life time: ~1 min
γ-IFN alone
  inactivation in vivo: rapidly inactivated by proteolytic degradation of its C-terminal end
